Target: FIP200 N-terminal domain (1-640), untagged, of the ULK1C core (human, UniProt Q8TDY2 1-640)
Assay: cryo-EM structure; ULK1C (2:1:1) core, SEC peak in 25 mM HEPES pH 7.5, 150 mM NaCl, 1 mM MgCl2, 1 mM TCEP; graphene grids, 300 kV Titan Krios
Details: both partners purified

Sequence of FIP200 N-terminal domain (1-640), untagged, of the ULK1C core (Q8TDY2 1-640): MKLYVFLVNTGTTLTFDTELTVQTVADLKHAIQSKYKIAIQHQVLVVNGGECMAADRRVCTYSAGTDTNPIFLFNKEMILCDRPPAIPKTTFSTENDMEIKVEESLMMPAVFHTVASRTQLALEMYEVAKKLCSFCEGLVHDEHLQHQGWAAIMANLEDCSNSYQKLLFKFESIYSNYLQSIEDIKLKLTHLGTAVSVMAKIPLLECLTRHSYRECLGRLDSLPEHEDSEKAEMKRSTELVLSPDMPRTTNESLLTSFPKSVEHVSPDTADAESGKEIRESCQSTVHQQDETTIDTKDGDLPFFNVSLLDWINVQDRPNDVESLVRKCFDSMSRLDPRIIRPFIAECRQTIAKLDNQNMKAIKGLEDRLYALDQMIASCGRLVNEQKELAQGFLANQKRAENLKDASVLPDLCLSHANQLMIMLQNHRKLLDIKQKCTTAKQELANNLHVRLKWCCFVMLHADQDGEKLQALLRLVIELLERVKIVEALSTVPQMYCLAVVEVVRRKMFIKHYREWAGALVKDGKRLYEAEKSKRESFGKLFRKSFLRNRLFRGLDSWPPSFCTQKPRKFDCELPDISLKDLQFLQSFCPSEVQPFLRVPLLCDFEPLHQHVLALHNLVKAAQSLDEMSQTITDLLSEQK

B1: ATG13 (363-517), the ATG13 part of the ATG13-ULK1 fusion chain (domain or fragment, human, UniProt O75143 363-517, looked up)
chain: HDVLETIFVRKVGAFVNKPINQVTLTSLDIPFAMFAPKNLELEDTDPMVNPPDSPETESPLQGSLHSDGSSGGSSGNTHDDFVMIDFKPAFSKDDILPMDLGTFYREFQNPPQLSSLSIDIGAQSMAEDLDSLPEKLAVHEKNVREFDAFVETLQ
Does B1 bind?
Result: binds
